Assay [1] addresses nYFP-CmoNAC1 (pumpkin).
Assay [2] deals with nYFP-CmoNAC1 (pumpkin). This is another data set of the same source.

Consider one substance from paper PMC11077054.

Consider CmoDREB2A-cYFP (natural protein), for which, in the assay with nYFP-CmoNAC1 (pumpkin) [1], the LUC/RLU ratio of the reporter with the NACbs of the CmoNCED6 promoter in tobacco: CmoNAC1 + CmoDREB2A against CmoNAC1 alone is 87% and the LUC/RLU ratio of the reporter with the NACbs of the CmoRBOHD1 promoter in tobacco: CmoNAC1 + CmoDREB2A against CmoNAC1 alone was 67%. Moreover, in the assay with nYFP-CmoNAC1 (pumpkin) [2], the LUC/RLU ratio of the reporter with the NACbs of the CmoAKT1;2 promoter in tobacco: CmoDREB2A + CmoNAC1 against CmoNAC1 alone was 99% and the LUC/RLU ratio of the reporter with the NACbs of the CmoHKT1;1 promoter in tobacco: CmoDREB2A + CmoNAC1 against CmoNAC1 alone was determined as 107%.
